Common to all, as to details: tags: bacterially expressed, purified as Markovtsov et al. 2000
For data set [1], the target named is T1, hnRNP H (recombinant) (UniProt P31943 P31943:1-449).
T1 sequence: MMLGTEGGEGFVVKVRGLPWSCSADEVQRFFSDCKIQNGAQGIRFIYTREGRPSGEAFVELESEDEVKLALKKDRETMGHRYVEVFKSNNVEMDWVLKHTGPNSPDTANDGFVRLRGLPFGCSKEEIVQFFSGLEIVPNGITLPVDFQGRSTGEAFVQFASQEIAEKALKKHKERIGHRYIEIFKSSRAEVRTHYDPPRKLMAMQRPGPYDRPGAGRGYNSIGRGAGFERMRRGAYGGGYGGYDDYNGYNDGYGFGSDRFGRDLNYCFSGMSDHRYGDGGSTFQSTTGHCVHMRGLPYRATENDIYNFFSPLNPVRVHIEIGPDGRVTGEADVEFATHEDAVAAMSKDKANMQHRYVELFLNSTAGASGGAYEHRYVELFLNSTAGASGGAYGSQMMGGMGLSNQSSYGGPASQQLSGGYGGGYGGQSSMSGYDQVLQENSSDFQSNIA
In words: EMSA; native gel, lane 3. The source says:
(§1) Based on previous data FIGS. 1B, 1C, 2A and 2B) we speculated that the binding of hnRNP H to CUG repeats is proportional to the length of the repeats. The recombinant form of hnRNP H was indubated with different length CUG repeats and complexes resolved in a native gel (FIG. 4A). No binding to the CUG 5 RNA was observed (Lanes 1 and 3). When the CUG 46 RNA was used in this assay, only a small fraction of the protein was gel shifted (marked as * in lane 6). In contrast, the CUG85 RNA was much more gel shifted (marked as * in lane 9). […] Combined all hnRNP H binds to CUG repeats in a proportional way depends on the length of the (CUG) repeats.
A general note: Mobility shift assays separate free from complexed probe on a gel.

The target in data set [2] is T1, hnRNP H (recombinant). In words: EMSA; much more shifted than CUG46; 50 kDa UV crosslink but no 100 kDa dimer without extract.
Excerpt: as §1

Data set [3] concerns the target T1, hnRNP H (recombinant). The data set is described as follows: EMSA; 10 ng protein; binding abolished by branch site mutation.
Excerpt: as §1
The different RNAs used in these assays have CUG repeats as well as a splicing acceptor site derived from a downstream of the DMPK gene (Gourdon, 1997). To understand the role of this 3′ branch site in the binding reaction, a mutant CUG85 clone containing a mutant form of the branch site was created (marked as CUG85′, FIG. 1A).

As for CUGCUGCUGCUGCUGGGGGGAUCACAGACCA (ssRNA) [(CUG)5 DMPK RNA], the binding result in the data set with hnRNP H (recombinant) [1] was “no binding”.

B1: (CUG)85 DMPK RNA (ssRNA)
RNA: CUGCUGCUGCUGCUGCUGCUGCUGCUGCUGCUGCUGCUGCUGCUGCUGCUGCUGCUGCUGCUGCUGCUGCUGCUGCUGCUGCUGCUGCUGCUGCUGCUGCUGCUGCUGCUGCUGCUGCUGCUGCUGCUGCUGCUGCUGCUGCUGCUGCUGCUGCUGCUGCUGCUGCUGCUGCUGCUGCUGCUGCUGCUGCUGCUGCUGCUGCUGCUGCUGCUGCUGCUGCUGCUGCUGCUGCUGCUGCUGCUGCUGCUGCUGCUGGGGGGAUCACAGACCA
As for B1, in the data set with hnRNP H (recombinant) [2], the binding result is recorded as “binds”.

B2: (CUG)85' DMPK RNA, mutated 3' branch site (ssRNA)
RNA: CUGCUGCUGCUGCUGCUGCUGCUGCUGCUGCUGCUGCUGCUGCUGCUGCUGCUGCUGCUGCUGCUGCUGCUGCUGCUGCUGCUGCUGCUGCUGCUGCUGCUGCUGCUGCUGCUGCUGCUGCUGCUGCUGCUGCUGCUGCUGCUGCUGCUGCUGCUGCUGCUGCUGCUGCUGCUGCUGCUGCUGCUGCUGCUGCUGCUGCUGCUGCUGCUGCUGCUGCUGCUGCUGCUGCUGCUGCUGCUGCUGCUGCUGCUGCUGGGGGGAUCAGUGACCA
On to B2, for which the binding result in the data set with hnRNP H (recombinant) [3] is given as “no binding”.

The values above are taken from patent US20070054259, “Modulation of hnRNP H and treatment of DM1” (City of Hope, published 2007).
